In patent US20180030119A1 (published 2018):

Columns and labels:
[1] = biological target: F protein of clinical RSV isolate #1, on virus; experiment: cell-based or functional assay
[2] = biological target: T1, RSV F protein as coated in the ELISA of Example 3 (RSV-EIA antigen by the legend of FIG. 6) (RSV, strain ); experiment: ELISA, serial dilutions of purified AR201 on coated antigen, anti-human IgG-HRP, four parameter fit
T1 construct: also called total RSV antigen (EIA-antigen)

B1: AR201 (antibody, V domains shown)
VH: LVQLRESGPGLVKPSQTLSLTCSVSGASINLYDYFWGWIRQAPGRGPEWIGYISGSTYYNPSLKRRATISVDTSKSQFFLELTSVTAADTAVYYCARDVGWGPQYYYGLDVWGQGTTVTVSS
VL: DLVLTQSPGTLSLSPGERATLSCRASHSVQSTSLAWYQQKRGQAPRLLIYGGSSRVTGIPDRFSGSGSGTDFTLTISRLEPEDFAVYYCQQSDRSPPITFGQGTRLEMK
notes: Fully human IgG1, kappa; 1 and 3 are used here; also called KBRV201
IC50 of neutralisation, infectivity assay on Hep2 cells [1]: 1700 nM | EC50 [2]: 0.103 nM
